Experimental data: paper PMC2713256, “Tousled kinase TLK1B counteracts the effect of Asf1 in inhibition of histone H3–H4 tetramer formation” (BMC Research Notes, 2009)

Columns and labels:
[1] = target: histone H3–H4 dimer (bovine | human) (UniProt P68432); test: cross-linking; combinations of H3, H4, Asf1 and TLK1B in equivalent amounts, no ATP, 5 min at room temperature in 50 mM phosphate buffer pH 7.2; 3 mM formaldehyde 5 min on ice, stopped with 50 mM glycine; SDS-PAGE, blots for H3, H4, Asf1 and TLK1B
[2] = target: T1, recombinant human TLK1B (GST-TLK1B) (human, UniProt Q9UKI8-3 1-549); test: pull-down; GST-TLK1B (5 ug with varying amounts of Asf1, or 1 ug each with and without 10 or 100 uM ATP and 1 mM MgCl2), 10 min at room temperature, adsorbed on GSH-Sepharose; bound and unbound fractions on 10% SDS-PAGE stained with Coomassie blue; details: both partners purified
T1 construct: Named GST-TLK1B in the pull-downs and only TLK1B in the cross-linking reactions; also called Tousled kinase TLK1B; source: recombinant, prepared as described previously [10]
T1 sequence (looked up): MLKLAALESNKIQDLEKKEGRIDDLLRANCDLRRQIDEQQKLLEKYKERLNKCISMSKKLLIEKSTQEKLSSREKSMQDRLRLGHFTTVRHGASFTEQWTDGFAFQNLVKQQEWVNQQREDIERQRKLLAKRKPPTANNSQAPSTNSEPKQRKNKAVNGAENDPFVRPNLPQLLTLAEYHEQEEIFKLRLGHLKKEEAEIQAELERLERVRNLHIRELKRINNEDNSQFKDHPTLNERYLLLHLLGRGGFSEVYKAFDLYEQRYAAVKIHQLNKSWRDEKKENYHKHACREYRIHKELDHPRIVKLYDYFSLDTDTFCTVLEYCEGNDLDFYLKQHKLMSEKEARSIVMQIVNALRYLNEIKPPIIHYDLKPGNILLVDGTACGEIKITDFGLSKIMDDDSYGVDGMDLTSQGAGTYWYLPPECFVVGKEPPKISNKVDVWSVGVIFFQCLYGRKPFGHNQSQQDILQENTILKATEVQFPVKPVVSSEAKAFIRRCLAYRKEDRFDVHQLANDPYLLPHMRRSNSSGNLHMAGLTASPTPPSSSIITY

B1: recombinant human Asf1B (natural protein, UniProt Q9NVP2 1-202, looked up)
chain: MAKVSVLNVAVLENPSPFHSPFRFEISFECSEALADDLEWKIIYVGSAESEEFDQILDSVLVGPVPAGRHMFVFQADAPNPSLIPETDAVGVTVVLITCTYHGQEFIRVGYYVNNEYLNPELRENPPMKPDFSQLQRNILASNPRVTRFHINWDNNMDRLEAIETQDPSLGCGLPLNCTPIKGLGLPGCIPGLLPENSMDCI
notes: Asf1B, histone H3-H4 chaperone, human, recombinant; source: recombinant, prepared as described previously [10]
- percent inhibition of H3–H4 tetramer formation [1]: 57%
- stoichiometry N [2]: 1
